Source: publication PMC7321126, “Recombinant Expression and Stapling of a Novel Long-Acting GLP-1R Peptide Agonist” (Molecules, 2020)

Assays:
[1] = target: human GLP-1R on HEK293-GLP-1R-CRE cells (human) (UniProt P43220)
[2] = target: GLP-1R on cAMP Hunter CHO cells (UniProt P43220)
Sequence of GLP-1R on cAMP Hunter CHO cells (P43220 24-463): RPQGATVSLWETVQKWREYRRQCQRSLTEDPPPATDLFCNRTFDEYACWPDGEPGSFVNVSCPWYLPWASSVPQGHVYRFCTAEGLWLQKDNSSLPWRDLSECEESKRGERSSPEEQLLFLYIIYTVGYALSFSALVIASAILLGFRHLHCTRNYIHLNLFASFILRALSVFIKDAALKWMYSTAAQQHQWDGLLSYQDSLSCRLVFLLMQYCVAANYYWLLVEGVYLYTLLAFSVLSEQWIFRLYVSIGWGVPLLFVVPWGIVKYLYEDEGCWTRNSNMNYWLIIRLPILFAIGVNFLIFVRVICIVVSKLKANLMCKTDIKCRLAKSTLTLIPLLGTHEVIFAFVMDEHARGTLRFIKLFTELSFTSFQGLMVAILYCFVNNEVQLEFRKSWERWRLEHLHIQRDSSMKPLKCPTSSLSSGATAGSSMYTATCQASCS

Sequence of human GLP-1R on HEK293-GLP-1R-CRE cells (human) (P43220 24-463): as above

| Substance | EC50, CRE luciferase reporter assay in HEK293-GLP-1R-CRE cells [1] [nM] | EC50, intracellular cAMP (HTRF) assay in cAMP Hunter CHO cells expressing GLP-1R [2] [nM] |
| --- | --- | --- |
| Semaglutide (peptide) | 0.024 | 0.21 |
| exenatide (Ex-4) (from UniProt P26349 48-87) (peptide) | 0.037 | 0.111 |
